Results taken from patent publication US20230167182A1 (BIOSION, published 2023).

Experiments:
[1] = biological target: T1, recombinant human IL6R-his (human, UniProt P08887 20-365); assay: SPR Biacore; antibody from diluted cell supernatant captured by anti-human IgG on CM5, human IL6R in flow
T1 construct: In house made; the entry includes the C-terminal His tag; also called human IL6R-his protein
T1 sequence: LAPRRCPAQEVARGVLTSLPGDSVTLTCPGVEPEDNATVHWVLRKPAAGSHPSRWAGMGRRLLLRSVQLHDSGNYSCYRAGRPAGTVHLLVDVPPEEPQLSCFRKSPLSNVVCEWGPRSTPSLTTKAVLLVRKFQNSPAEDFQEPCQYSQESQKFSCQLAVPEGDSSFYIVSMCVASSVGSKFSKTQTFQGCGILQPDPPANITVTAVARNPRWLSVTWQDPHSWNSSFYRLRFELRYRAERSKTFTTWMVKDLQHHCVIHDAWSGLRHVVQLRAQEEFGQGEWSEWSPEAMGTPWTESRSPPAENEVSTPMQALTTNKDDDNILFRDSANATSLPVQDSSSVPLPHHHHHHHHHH
Protocol: (§1) Un-reacted moieties on the biosensor surface were blocked with ethanolamine. […] Then, serially diluted recombinant human IL6R-his (in house made, amino acid sequence set forth in SEQ ID NO: 44) or macaca IL6R-his protein (in house made, amino acid sequence set forth in SEQ ID NO: 45), starting at 100 nM with a 2-fold serial dilution in HBS-EP⁺ buffer (provided by Biacore), was flowed onto the chip at a flow rate of 30 μL/min. The antigen-antibody association kinetics was followed for 2 minutes and the dissociation kinetics was followed for 10 minutes. The association and dissociation curves were fit to a 1:1 Langmuir binding model using BIAcore evaluation software.
Cell supernatants containing humanized antibodies were harvested after six days in shaking flasks and directly subjected to BIAcore test following the protocol described above with modifications.

human IL6R-Fc protein [2] = biological target: T2, human IL6R-Fc protein (human, biotin-labeled in the ELISAs (sites not given)); assay: capture ELISA: antibody captured on anti-IgG F(ab')2 coated plate, then biotin-labeled human IL6R-Fc, streptavidin-HRP
T2 construct: In house made; also called biotin-labeled human IL6R-Fc protein
Protocol: For the capture ELISA, 96-well micro plates were coated with 2 μg/ml AffiniPure Goat Anti-Mouse IgG, F(ab′)₂ fragment specific (Jackson ImmunoResearch Laboratories, Inc., Cat #115-005-072) in PBS, 100 μl/well, and incubated for 2 hours at 37° C. Plates were washed once with wash buffer (PBS+0.05% v/v Tween-20, PBST) and then blocked with 200 μl/well blocking buffer (5% w/v non-fatty milk in PBST) overnight at 4° C. […] Plates containing captured anti-IL6R antibodies were incubated with biotin-labeled human IL6R-Fc protein (prepared in house, SEQ ID NO: 43, 39.5 ng/ml in 2.5% w/v non-fatty milk in PBST, 100 μl/well) for 40 minutes at 37° C., washed 4 times, and incubated with streptavidin conjugated HRP (1:10000 dilution in PBST, Jackson ImmunoResearch Laboratories, Inc., Cat #016-030-084, 100 μl/well) for 40 minutes at 37° C. After a final wash, plates were incubated with 100 μl/well ELISA substrate TMB (InnoReagents, Cat #TMB-S-002). The reaction was stopped 3-10 minutes later at room temperature with 50 μl/well 1M H₂SO₄, and the absorbance of each well was read on a microplate reader using dual wavelength mode at 450 nm for TMB and 630 nm as the reference wavelength. Then the OD (450-630) values were plotted against antibody concentration. Data was analyzed using Graphpad Prism software and EC₅₀ values were reported.
For the capture ELISA, AffiniPure Goat Anti-Human IgG, F(ab′)₂ fragment specific (Jackson Immuno Research, Cat #109-005-097) was used instead of AffiniPure Goat Anti-Mouse IgG, F(ab′)₂ fragment specific, 100 μl/well.

human IL6R-Fc protein [3] = biological target: T2, human IL6R-Fc protein; assay: benchmark blocking ELISA: antibody pre-incubated with biotin-labeled human IL6R-Fc, added to plate-coated Tocilizumab (competitor: Tocilizumab)
macaca IL6R-his protein = biological target: T3, macaca IL6R-his protein (macaca mulatta); assay: SPR Biacore T200; antibody captured on Protein G chip, antigen in flow, 1:1 fit
T3 chain: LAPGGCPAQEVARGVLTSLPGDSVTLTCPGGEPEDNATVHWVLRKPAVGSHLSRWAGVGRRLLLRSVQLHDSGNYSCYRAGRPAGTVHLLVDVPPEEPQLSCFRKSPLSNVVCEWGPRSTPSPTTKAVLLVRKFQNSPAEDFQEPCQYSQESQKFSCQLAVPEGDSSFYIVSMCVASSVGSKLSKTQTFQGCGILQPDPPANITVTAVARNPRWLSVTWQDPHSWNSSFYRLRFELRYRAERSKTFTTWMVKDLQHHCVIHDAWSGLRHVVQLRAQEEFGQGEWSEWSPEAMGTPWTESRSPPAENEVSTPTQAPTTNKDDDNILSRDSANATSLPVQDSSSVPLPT
Protocol: as §1

[4] = biological target: T1, recombinant human IL6R-his; assay: as above
Protocol: as §1

B1: humanized antibody hu1H7-V5 (antibody, human IgG1, kappa, V domains shown)
VH: QVQLVQSGAEVKKPGASVKVSCKASGYTFTNYWMHWVRQAPGQGLEWIGEINPTNGRTNYNENFKSRVTLTVDTSTSTVYMELSSLRSEDTAVYYCARLNTHYVFDSWGQGTLVTVSS
VL: EIVLTQSPGTLSLSPGERATLSCSVSSSISSNYLHWYQQKPGLSPRLLISRTSTLASGIPARFSGSGSGTEYTLTISRMQSEDFAVYYCQQGSGIPFTFGQGTKLEIKR
notes: Human IgG1 / kappa
In the case of B1, the Kd [1] is reported as 0.526 nM, the koff [1] is reported as 0.000195 s⁻¹ and the kon [1] is reported as 370000 M⁻¹ s⁻¹.

B2: mouse anti-IL6R monoclonal antibody 1H9 (antibody, V domains shown)
VH: QVQLQQPGAELVKPGASVKLSCKASGYTFTSYWMHWVKLRPGQGLEWIGEINPTNGRTNYYEKFKNRATLTADKSSSTAYMQLSSLTFEDSAVYFCAKFHYSRWYFDVWGTGTTVTVSS
VL: DIVMTQSQKFMSTSVGDRVSITCKASQNVGTAVVWYQQKPGQSPKLLINPASNRYTGVPDRFTGSGSGTDFTLTISNMQSEDLADYFCQQYSSYPLTFGAGTKLELK
notes: Mouse hybridoma mAb
B2 gave an EC50 (human IL6R-Fc protein [2]) of 0.0834 nM and an IC50 (human IL6R-Fc protein [3]) of 0.394 nM.

B3: Tocilizumab (antibody, human IgG1, kappa, V domains shown)
VH: QVQLQESGPGLVRPSQTLSLTCTVSGYSITSDHAWSWVRQPPGRGLEWIGYISYSGITTYNPSLKSRVTMLRDTSKNQFSLRLSSVTAADTAVYYCARSLARTTAMDYWGQGSLVTVSS
VL: DIQMTQSPSSLSASVGDRVTITCRASQDISSYLNWYQQKPGKAPKLLIYYTSRLHSGVPSRFSGSGSGTDFTFTISSLQPEDIATYYCQQGNTLPYTFGQGTKVEIKR
notes: In house made; also called benchmark; Actemra
B3 showed a Kd (macaca IL6R-his protein) of 3.8 nM, a Kd [4] of 3.26 nM and an EC50 (human IL6R-Fc protein [2]) of 0.18 nM. For the same binder, the IC50 (human IL6R-Fc protein [3]) was 0.77 nM.
